These results are taken from article doi:10.1101/2021.02.16.431378.

Data set [1] addresses N-terminally 6xHis tagged HU-A (histidine-tagged E. coli HU-A) (E. coli K-12 sub-strain MG1655) (UniProt P0ACF0). The data set can be described thus: SEC. For orientation: SEC sorts molecules by how far they enter the pores of the column.
Data set [2] shares this target. Briefly: cross-linking.
Data set [3] shares this target. The data set can be described thus: SEC. The source holds these as a separate data set.
Data set [4] has as its target N-terminally 6xHis tagged HU-B (histidine-tagged E. coli HU-B) (E. coli K-12 sub-strain MG1655) (UniProt P0ACF4). Briefly: SEC.
For data set [5] the target is unchanged. Briefly: cross-linking.
Data set [6] shares this target. The data set can be described thus: cross-linking. This is another data set of the same source.
The target is the same in data set [7]. The data set can be described thus: SEC. This is another data set of the same source.
Data set [8] shares this target. The data set can be described thus: cross-linking. The source holds these as a separate data set.
Data set [9] concerns the target N-terminally 6xHis-tagged HU-B co-expressed from pET-Duet-1 (E. coli K-12 sub-strain MG1655) (UniProt P0ACF4). Briefly: SEC.
For data set [10] the target is unchanged. Briefly: pull-down.
For data set [11], the target named is T1, TmRITC-labelled histidine-tagged HU-B, P0ACF4.
T1 chain: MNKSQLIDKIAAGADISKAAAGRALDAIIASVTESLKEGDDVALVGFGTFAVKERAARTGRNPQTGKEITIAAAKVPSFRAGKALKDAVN
Briefly: FRET or BRET.

The target of the next data set is 6xHis-HU-A (Escherichia coli K-12 MG1655, UniProt P0ACF0 1-90). The data set can be described thus: EMSA. On the technique in general: A gel shift assay detects complexes by their altered migration in electrophoresis.
Another data set concerns the target T2, 6xHis-HU-B (Escherichia coli K-12 MG1655, UniProt P0ACF4 1-90).
T2 sequence: T1 chain
Briefly: EMSA.

Where “and” joins values, the source holds several entries; their conditions need not be identical. Equal entries are not always repeated.

For the molecule “N-terminally 6xHis tagged HU-A (histidine-tagged E. coli HU-A) (from UniProt P0ACF0 1-90) (natural protein)”, the stoichiometry N in [1], in data set [2] and in [3] was 2 each time.

In the case of “N-terminally 6xHis tagged HU-B (histidine-tagged E. coli HU-B) (from UniProt P0ACF4 1-90) (natural protein)”, the stoichiometry N in data set [4] was 2; in data set [5], 2 and 4; in data set [6] it was 2 and 4; in data set [7], 2; in data set [8], 2 and 4.

In [9], “N-terminally 6xHis-tagged HU-B co-expressed from pET-Duet-1 (from UniProt P0ACF4 1-90) (natural protein)” yielded a stoichiometry N of 2.

In [10], “Tag-RFP fused to HU-A without a 6xHis tag (RFP-HU-A) (from UniProt P0ACF0 1-90) (natural protein)” gave a heterodimer as percent of the total overexpressed HU population of under 5% and a percent of the total protein purified of under 10%. This molecule came in with a heterodimer as percent of the total overexpressed HU population in [9] of under 5%.

B1: FITC-labelled histidine-tagged HU-A (protein)
chain: MNKTQLIDVIAEKAELSKTQAKAALESTLAAITESLKEGDAVQLVGFGTFKVNHRAERTGRNPQTGKEIKIAAANVPAFVSGKALKDAVK
For the molecule B1, the “percent heterodimers formed after mixing” value in data set [11] is reported as “less than 5%”.

B2: 4WJ-DNA (Holliday junction) (structured_DNA)
DNA 1: CCCTATAACCCCTGCATTGAATTCCTGTCTGATAA
DNA 2: GTAGTCGTGATAGGTGCAGGGGTTATAGGG
DNA 3: AACAGTAGCTCTTAATTCGAGCTCGCGCCCTATCACGACTA
DNA 4: TTTATCAGACTGGAATTCAAGCGCGAGCTCGAATAAGAGCTACTGT
Consider B2, for which the binding result with 6xHis-HU-A and with 6xHis-HU-B was “binds” each time.

As usually defined, the stoichiometry N is a count of units in the complex or per binding partner.
